Measurements reported in PMC4255728.

How the values were obtained:
[1] = target: Saccharomyces cerevisiae cytochrome c oxidase, 5A isoenzyme (strain WTCOX5A) (S. cerevisiae) (UniProt P00401)
[2] = target: Saccharomyces cerevisiae cytochrome c oxidase, 5B isoenzyme (strain COX5B, COX5B downstream of the COX5A promoter) (S. cerevisiae) (UniProt P00401)
[3] = target: Saccharomyces cerevisiae cytochrome c oxidase, 5B isoenzyme (strain ΔROX1ΔCOX5A, COX5B under its own promoter) (S. cerevisiae) (UniProt P00401)

Substance	Km for cyt c (low-affinity phase), steady-state oxygen consumption of mitos, 1.25-350 μM cyt c, 25°C, pH 6.6, 50 mM KCl, 0.05% DDM [1] [μM]	Km for cyt c (low-affinity phase), steady-state oxygen consumption of mitos, 1.25-350 μM cyt c, 25°C, pH 6.6, 50 mM KCl, 0.05% DDM [2] [μM]	Km for cyt c (low-affinity phase), steady-state oxygen consumption of mitos, 1.25-350 μM cyt c, 25°C, pH 6.6, 50 mM KCl, 0.05% DDM [3] [μM]	Km for cyt c (low-affinity phase of biphasic kinetics), steady-state oxygen consumption of mitos, 1.25-350 μM cyt c, 25°C, pH 6.6, 50 mM KCl, 0.05% DDM [1] [μM]	Km for cyt c (low-affinity phase of biphasic kinetics), steady-state oxygen consumption of mitos, 1.25-350 μM cyt c, 25°C, pH 6.6, 50 mM KCl, 0.05% DDM [2] [μM]	Km for cyt c (low-affinity phase of biphasic kinetics), steady-state oxygen consumption of mitos, 1.25-350 μM cyt c, 25°C, pH 6.6, 50 mM KCl, 0.05% DDM [3] [μM]
Horse heart cytochrome c (from UniProt P00004 1-105) (natural protein)	13.9	14.5	10.8			
Yeast iso-1 cytochrome c (isoform-1) (from UniProt P00044 1-109) (natural protein)				29.8	39.5	41.2
Yeast iso-2 cytochrome c (isoform-2) (from UniProt P00045 1-113) (natural protein)				23.9	59.5	47.8
